Holding throughout (experiment): cell-based or functional assay
The target in assay [1] is T1, human GIP receptor (human) (UniProt P48546).
T1 sequence (looked up): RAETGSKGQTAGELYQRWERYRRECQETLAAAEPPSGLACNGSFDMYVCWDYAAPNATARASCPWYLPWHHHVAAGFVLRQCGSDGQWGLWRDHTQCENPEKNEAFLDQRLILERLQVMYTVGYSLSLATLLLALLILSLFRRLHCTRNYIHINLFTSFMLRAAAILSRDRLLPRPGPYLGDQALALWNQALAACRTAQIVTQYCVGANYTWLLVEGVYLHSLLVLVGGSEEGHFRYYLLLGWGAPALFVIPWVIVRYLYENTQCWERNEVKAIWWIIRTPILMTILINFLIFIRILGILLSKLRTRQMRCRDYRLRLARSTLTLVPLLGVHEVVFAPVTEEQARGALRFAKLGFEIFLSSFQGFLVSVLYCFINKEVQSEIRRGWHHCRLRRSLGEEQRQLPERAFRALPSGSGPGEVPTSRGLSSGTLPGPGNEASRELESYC

In assay [2] the target is human glucagon receptor (human) (UniProt P47871).
Assay [3] deals with hGLP-1R (Homo sapiens, UniProt P43220).
Assay [4] concerns the target T2, human GIP receptor (human, UniProt P48546 22-466).
T2 sequence (looked up): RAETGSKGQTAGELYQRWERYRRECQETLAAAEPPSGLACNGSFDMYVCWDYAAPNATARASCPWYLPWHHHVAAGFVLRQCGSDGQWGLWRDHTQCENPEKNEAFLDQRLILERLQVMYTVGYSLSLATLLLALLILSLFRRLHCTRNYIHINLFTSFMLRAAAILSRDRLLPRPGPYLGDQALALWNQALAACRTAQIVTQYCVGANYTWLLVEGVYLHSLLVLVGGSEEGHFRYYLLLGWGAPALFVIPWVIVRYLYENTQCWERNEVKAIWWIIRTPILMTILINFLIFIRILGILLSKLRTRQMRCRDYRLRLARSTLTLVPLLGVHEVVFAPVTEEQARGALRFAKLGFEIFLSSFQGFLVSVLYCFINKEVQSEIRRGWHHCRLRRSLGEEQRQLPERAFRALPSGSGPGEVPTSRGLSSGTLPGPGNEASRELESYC

Assay [5] has as its target human glucagon receptor (human, UniProt P47871 26-477).
For assay [6], the target named is human GLP-1 receptor (human, UniProt P43220 24-463).

Results on 8 molecules are retold here after patent publication US20230265151A1, “GIP/GLP1 CO-AGONIST COMPOUNDS” (priority 2020, published 2023).

Chain of human glucagon receptor (P47871 26-477): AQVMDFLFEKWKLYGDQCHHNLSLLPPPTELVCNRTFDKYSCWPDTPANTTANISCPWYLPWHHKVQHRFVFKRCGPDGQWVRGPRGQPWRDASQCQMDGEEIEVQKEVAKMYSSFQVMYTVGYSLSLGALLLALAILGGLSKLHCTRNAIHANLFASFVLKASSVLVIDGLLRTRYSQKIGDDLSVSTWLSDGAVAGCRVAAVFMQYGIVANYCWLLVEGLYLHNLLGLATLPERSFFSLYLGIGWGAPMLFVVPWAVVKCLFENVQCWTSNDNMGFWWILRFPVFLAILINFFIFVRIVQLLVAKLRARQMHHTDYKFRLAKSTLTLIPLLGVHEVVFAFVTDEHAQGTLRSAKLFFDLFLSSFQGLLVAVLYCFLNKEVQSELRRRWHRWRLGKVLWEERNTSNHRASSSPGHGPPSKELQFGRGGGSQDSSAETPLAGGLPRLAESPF

B1: Example 373 (peptide)
peptide: YXEGTXTSDYXIXLDXKAQXEFIXXLIKGGPSSGAPPPS
modifications: Y-Aib-EGT-αMeF(2F)-TSDY-Aib-I-αMeL-LD-Orn-K((2-[2-(2-Amino-ethoxy)-ethoxy]-acetyl)-(γ-Glu)-(10-(4-carboxyphenoxy)decanoyl))AQ-Aib-EFI-(D-Glu)-αMeY-LIK((2-[2-(2-Amino-ethoxy)-ethoxy]-acetyl)-(γ-Glu)-(10-(4-carboxyphenoxy)decanoyl))GGPSSGAPPPS-NH2
As for B1, the cAMP EC50 was 0.0152 nM in assay [1], > 9950 nM in assay [2] and 0.329 nM in assay [3]. Moreover, the cAMP Emax in assay [1] and in assay [3] was 101% throughout. Further, the “cAMP EC50 (1.0% HSA)” value was 2.84 nM in assay [4], > 9950 nM in assay [5] and 37.4 nM in assay [6].

B2: Example 416 (peptide)
peptide: YXEGTXTSDXXIXLDXKAQXXFIXXLIKGGPSSGAPPPS
modifications: Y-Aib-EGT-αMeF(2F)-TSD-4Pal-Aib-I-αMeL-LD-Orn-K((2-[2-(2-Amino-ethoxy)-ethoxy]-acetyl)2-(γ-Glu)-CO-(CH2)10-CH3)AQ-Aib-4Pal-FI-(D-Glu)-αMeY-LIK((2-[2-(2-Amino-ethoxy)-ethoxy]-acetyl)2-(γ-Glu)-CO-(CH2)10-CH3)GGPSSGAPPPS-NH2
As to B2, the values for the cAMP EC50 in assay [1], in assay [2] and in assay [3] were 0.0214 nM, > 9950 nM and 0.332 nM, respectively. Moreover, the cAMP Emax in assay [1] is 99%; in assay [3], 104%. For the same molecule, the “cAMP EC50 (1.0% HSA)” value was 0.723 nM in assay [4] and > 9950 nM in assay [5]. Moreover, the “cAMP Emax (1.0% HSA)” value in assay [4] is 83%.

B3: Example 376 (peptide)
peptide: YXEGTXTSDYXIXLDXIAQXKFIXXLIKGGPSSGAPPPS
modifications: Y-Aib-EGT-αMeF(2F)-TSDY-Aib-I-αMeL-LD-Orn-IAQ-Aib-K((2-[2-(2-Amino-ethoxy)-ethoxy]-acetyl)-(γ-Glu)-(10-(4-carboxyphenoxy)decanoyl))FI-(D-Glu)-αMeY-LIK((2-[2-(2-Amino-ethoxy)-ethoxy]-acetyl)-(γ-Glu)-(10-(4-carboxyphenoxy)decanoyl))GGPSSGAPPPS-NH2
B3: the cAMP EC50 in assay [1] is 0.0281 nM; in assay [2] it was > 9950 nM; in assay [3], 0.539 nM. For the same molecule, the cAMP Emax in assay [1] was found to be 99.8%; in assay [3], 104%. Further, the “cAMP EC50 (1.0% HSA)” value was 39.6 nM in assay [4], > 9950 nM in assay [5] and 419 nM in assay [6]. Moreover, the “cAMP Emax (1.0% HSA)” value was 88.3% in assay [4] and 121% in assay [6].

B4: Example 366 (peptide)
peptide: YXEGTXTSDYXIXLDXKAQXKFIXXLIEGGPSSGAPPPS
modifications: Y-Aib-EGT-αMeF(2F)-TSDY-Aib-I-αMeL-LD-Orn-K((2-[2-(2-Amino-ethoxy)-ethoxy]-acetyl)-(γ-Glu)-CO-(CH2)12-CO2H)AQ-Aib-K((2-[2-(2-Amino-ethoxy)-ethoxy]-acetyl)-(γ-Glu)-CO-(CH2)12-CO2H)FI-(D-Glu)-αMeY-LIEGGPSSGAPPPS-NH2
As to B4, the cAMP EC50 is 0.0162 nM in assay [1], > 9950 nM in assay [2] and 0.279 nM in assay [3]. Further, the figures for the cAMP Emax in assay [1] and in assay [3] were 108% and 89.6%, respectively. Besides, the “cAMP EC50 (1.0% HSA)” value is 3.14 nM in assay [4], > 9950 nM in assay [5] and 96.2 nM in assay [6]. For the same molecule, the “cAMP Emax (1.0% HSA)” value in assay [4] worked out at 95.9%.

B5: Example 372 (peptide)
peptide: YXEGTXTSDYXIXLDXKAQXKFIXXLIEGGPSSGAPPPS
modifications: Y-Aib-EGT-αMeF(2F)-TSDY-Aib-I-αMeL-LD-Orn-K((2-[2-(2-Amino-ethoxy)-ethoxy]-acetyl)-(γ-Glu)-(10-(4-carboxyphenoxy)decanoyl))AQ-Aib-K((2-[2-(2-Amino-ethoxy)-ethoxy]-acetyl)-(γ-Glu)-(10-(4-carboxyphenoxy)decanoyl))FI-(D-Glu)-αMeY-LIEGGPSSGAPPPS-NH2
As for B5, the cAMP EC50 is 0.0112 nM in assay [1], > 9950 nM in assay [2] and 0.291 nM in assay [3]. For the same molecule, the cAMP Emax was determined as 97.3% in assay [1] and 108% in assay [3]. Moreover, the “cAMP EC50 (1.0% HSA)” value in assay [4] was 3.75 nM; in assay [5] it was > 9950 nM; in assay [6] it was 38 nM. Moreover, the “cAMP Emax (1.0% HSA)” value in assay [4] amounted to 90.6%.

B6: Example 360 (peptide)
peptide: YXEGTXTSDXXIXLDXKAQXKFIXXLIEGGPSSGAPPPS
modifications: Y-Aib-EGT-αMeF(2F)-TSD-4Pal-Aib-I-αMeL-LD-Orn-K((2-[2-(2-Amino-ethoxy)-ethoxy]-acetyl)-(γ-Glu)-(10-(4-carboxyphenoxy)decanoyl))AQ-Aib-K((2-[2-(2-Amino-ethoxy)-ethoxy]-acetyl)-(γ-Glu)-(10-(4-carboxyphenoxy)decanoyl))FI-(D-Glu)-αMeY-LIEGGPSSGAPPPS-NH2
As to B6, the cAMP EC50 in assay [1] is 0.0121 nM; in assay [2], > 9950 nM; in assay [3], 0.301 nM. In addition, the cAMP Emax was determined as 106% in assay [1] and 89.8% in assay [3]. In addition, the “cAMP EC50 (1.0% HSA)” value in assay [4] was 1.91 nM; in assay [5], > 9950 nM; in assay [6] it was 28.2 nM.

B7: Example 493 (peptide)
peptide: YXEGTXTSDXXIXLDXQAQXXFIKXLIKGGPSSGAPPPS
modifications: Y-Aib-EGT-αMeF(2F)-TSD-4Pal-Aib-I-αMeL-LD-Orn-QAQ-Aib-4Pal-FIK((2-[2-(2-Amino-ethoxy)-ethoxy]-acetyl)2-(γ-Glu)-(10-(4-carboxyphenoxy)decanoyl))-αMeY-LIK((2-[2-(2-Amino-ethoxy)-ethoxy]-acetyl)2-(γ-Glu)-(10-(4-carboxyphenoxy)decanoyl))GGPSSGAPPPS-NH2
For B7, the “cAMP EC50 (1.0% HSA)” value is 0.591 nM in assay [4], > 9950 nM in assay [5] and 7.24 nM in assay [6].

B8: Example 378 (peptide)
peptide: YXEGTXTSDVXIXLDXKAQXKFIXXLIEGGPSSGAPPPS
modifications: Y-Aib-EGT-αMeF(2F)-TSDV-Aib-I-αMeL-LD-Orn-K((2-[2-(2-Amino-ethoxy)-ethoxy]-acetyl)-(γ-Glu)-(10-(4-carboxyphenoxy)decanoyl))AQ-Aib-K((2-[2-(2-Amino-ethoxy)-ethoxy]-acetyl)-(γ-Glu)-(10-(4-carboxyphenoxy)decanoyl))FI-(D-Glu)-αMeY-LIEGGPSSGAPPPS-NH2
As for B8, the cAMP EC50 was 0.0132 nM in assay [1], > 9950 nM in assay [2] and 0.166 nM in assay [3]. The cAMP Emax in assay [1] was 93.5%; in assay [3], 98.9%. In addition, the entries for the “cAMP EC50 (1.0% HSA)” value in assay [4], in assay [5] and in assay [6] were 7.46 nM, > 9950 nM and 47.7 nM, respectively. For the same molecule, the “cAMP Emax (1.0% HSA)” value in assay [4] was 81.2%.
